{"source": "patent US20040001822A1", "about": "“Y1-isolated molecules comprising epitopes containing sulfated moieties, antibodies to such epitopes, and uses thereof” (priority 2000, published 2004)", "key": {"[1]": {"test_system": "glycocalicin, platelet lysate, KG-1 cell lysate, Raji cell lysate", "assay": "Western blot on glycocalicin, platelet, KG-1 and Raji lysates", "format": "binding, human", "settings": "FIG. 20", "text": "Antibodies against GPIbα (CD42b) recognize platelet lysate and glycocalicin and but not KG-1 cell lysate (a Y1 binding positive myeloid cell line) or Raji cell lysate (a B cell line that is negative for Y1 binding at concentrations at which KG-1 cells are positive for Y1 binding). […] (FIG. 20)."}, "[2]": {"target": "T1, recombinant bacterial derived glycocalicin (Homo sapiens, UniProt P07359)", "T1 construct": "GC, amino acid 1 to amino acid 493 of GPIbα; made in house; host or cells: E. coli BL21 DE3 (total cell lysate loaded on the gel)", "assay": "Western blot on recombinant glycocalicin expressed in E. coli", "format": "binding", "settings": "E. coli cell lysates", "description": "The DNA fragment encoding for glycocalicin (GC, amino acid 1 to amino acid 493 of GPIbα ) was cloned into an IPTG inducible prokaryotic vector cassette. E. coli (BL21 DE3) cells harboring the newly constructed plasmid were grown at 37° C. to O.D. 0.7-0.8, than at 37° C. for 3 hours for in the presence of IPTG for induction.\nSDS-polyacrylamide gel loaded either with semi-purified human platelet derived glycocalicin (“GC”) or with E. coli cell lysates (“total”) derived from induced and non-induced cells were analyzed. Western blot analysis was performed with biotinylated Y1-scfv, polyclonal rabbit anti-human glycocalicin antibody, commercially available mouse anti-human CD42 monoclonal antibody (SZ2 Immunotech, PM640 Serotec, HIP1 Pharmigen, AN51 DAKO), and polyclonal antibody against the N-terminus of GPIbα (Sc-7071, Santa Cruz).\nThe DNA fragment encoding the N-terminal soluble part of human platelet GP1b-glycocalicin (GC, amino acid 1 to amino acid 493) was cloned into an IPTG inducible prokaryotic vector cassette. E. coli (BL21 DE3) cells harboring the newly constructed plasmid were grown at 37° C. to O.D. 0.7-0.8, than at 37° C. for 3 hours for in the presence of IPTG for induction. SDS-polyacrylamide gel loaded either with semi-purified human platelet derived GC or with E. coli cell lysates (total protein content) derived from induced and non-induced cells were analyzed. […]"}, "washed platelets": {"test_system": "washed platelets", "assay": "Effect of Y1-IgG on agglutination of washed platelets with or without ristocetin", "format": "cell-based, human", "settings": "IgG 1 μg/ml", "text": "Due to its natural structure the full IgG Y1 has two binding sites on GPIbα and one binding site for an Fc receptor. It is likely that if full IgG Y1 binds two GPIbα molecules, it will activate platelets and induce platelet agglutination. Furthermore, because platelets have an Fc-receptor, Y1-IgG can induce platelet agglutination by binding to GPIbα and to an Fc-receptor, thereby producing platelet agglutination by each IgG Y1 binding to three platelets. Therefore, the effect of IgG Y1 on aggregation of washed platelets was tested at different concentrations of Y1-IgG in the presence or absence of ristocetin. Induction of platelet aggregation by Y1-IgG was monitored for 4 min at 37° C., followed by addition of ristocetin.\nThe results are presented in Table 6 and FIG. 17 without agonist. Y1-IgG alone at a final concentration of 50 μg/ml induced platelet agglutination ˜39% of normal agglutination of washed platelets. Induction of platelet agglutination by Y1-IgG was tested for 4 min at 37° C., followed by addition of ristocetin. […]\nFor platelet aggregation studies, platelet rich plasma (PRP) and washed platelets were stirred at 500 rpm at 37° C. in whole blood Lumiaggregometer (Chronolog, Havertown,Pa.). […] The effect of Y1 on platelet aggregation was evaluated by addition of different concentration of Y1 before the addition of agonist, and the effect was recorded for four minutes."}, "Jurkat cells": {"test_system": "Jurkat cells", "assay": "FACS binding of IgG-Y1 compared with scFv-Y1", "parameters": "species or system human", "settings": "5 ng IgG-Y1 versus 1 μg scFv-Y1, Jurkat cells", "description": "Binding of full size IgG-Y1 molecule: Binding experiments were performed to determine the level of binding of the IgG-Y1 molecule compared to the binding level of the scFv-Y1 molecule. A two-step staining procedure was employed, wherein 5 ng of IgG-Y1 were reacted with both RAJI cells (negative control, FIG. 44) and Jurkat cells (Y1 positive cells, FIG. 44). For detection, PE-labeled goat anti-human IgG was used. Similarly, 1 μg of scFv-Y1 was reacted with Jurkat cells (FIG. 44), and PE-labeled rabbit anti-scFv was used for detection."}, "Leukemia Cells": {"test_system": "Leukemia Cells", "assay": "FACS of leukemia samples: anti-CD162 versus Y1", "format": "binding, human", "settings": "12 patient samples of Table 11", "description": "Analysis of binding of scFv Y1 antibodies and anti-CD162 antibodies to diseased cells also illustrates that scFv Y1 has binding characteristics different from those of anti-CD162 antibodies. […] (Table F). Y1 binds to the leukemic cells in 10 of 12 samples. In contrast, anti-CD162 bound only 5 out of 12 samples. […] Thus, it may be concluded that, in leukemic cells, scFv Y1 binds to a ligand other than that recognized by anti-CD162.\nSamples provided from hospitals. Patients sample 30 μl/tube. Add 5 μl/tube of CD33-APC (for AML) or CD19-APC (for B-CLL) or CD38-APC (for Multiple Myeloma). Add 5 μl/tube of CD45-PerCp and 5 μl of scFv-Y1 or control scFv-N31 or CD162-PE (KPL1). Incubate tubes 30 minutes at 4° C. with low shaking. Wash by adding 2 ml PBS and spin 5 minutes at 1200 rpm. Discard supernatant.\nFor a one step assay continue with the lysis step:\nAdd 500 μl BD Lysine solution diluted 1:10 with ddH2O (300 μl to patient sample). Vortex at high speed and incubate 12 minutes at 4° C. Wash as above. Discard supernatant. And add 500 μl PBS. The samples are read in the FACS using blood sample acquisition setup according to international standards.\nFor two or more assays: working buffer is PBS+1% BSA+0.05% sodium azide. Incubations and wash as above.\nLysis of the red blood cells is the final step in the assay, followed by resuspension with 500 μl PBS."}}}
{"molecule": "Y1 scFv: fully human scFv clone binding platelets and myelogenous leukemia cells, SEQ ID NO: 25 (protein, listed as Homo sapiens) scFv: MKYLLPTAAAGLLLLAAQPAMAEVQLVESGGGVVRPGGSLRLSCAASGFTFDDYGMSWVRQAPGKGLEWVSGINWNGGSTGYADSVKGRFTISRDNAKNSLYLQMNSLRAEDTAVYYCARMRAPVIWGQGTLVTVSRGGGGSGGGGSGGGGSSELTQDPAVSVALGQTVRITCQGDSLRSYYASWYQQKPGQAPVLVIYGKNNRPSGIPDRFSGSSSGNTASLTITGAQAEDEADYYCNSRDSSGNHVVFGGGTKLTVLGAAAEQKLISEEDLNGAA", "values": [{"measurement": "recognition in Western blot", "setting": "[1]", "value": "recognized both glycocalicin, platelet lysate, and KG-1 cells, but not Raji cell extract"}, {"measurement": "recognition in Western blot", "setting": "[2]", "value": "did not recognize"}, {"measurement": "% agglutination Without ristocetin", "setting": "washed platelets", "value": "no induction"}, {"measurement": "more molecules needed for a level of detection similar to that of IgG-Y1", "setting": "Jurkat cells", "value": "approximately 10^3 fold"}, {"measurement": "leukemia samples whose leukemic cells are bound", "setting": "Leukemia Cells", "value": "10 of 12"}]}
